Reference: article PMC5076819

T1: S. gordonii SecY2-Asp4-Asp5 complex (S. gordonii) (UniProt A8AWV0)
T1 sequence 1: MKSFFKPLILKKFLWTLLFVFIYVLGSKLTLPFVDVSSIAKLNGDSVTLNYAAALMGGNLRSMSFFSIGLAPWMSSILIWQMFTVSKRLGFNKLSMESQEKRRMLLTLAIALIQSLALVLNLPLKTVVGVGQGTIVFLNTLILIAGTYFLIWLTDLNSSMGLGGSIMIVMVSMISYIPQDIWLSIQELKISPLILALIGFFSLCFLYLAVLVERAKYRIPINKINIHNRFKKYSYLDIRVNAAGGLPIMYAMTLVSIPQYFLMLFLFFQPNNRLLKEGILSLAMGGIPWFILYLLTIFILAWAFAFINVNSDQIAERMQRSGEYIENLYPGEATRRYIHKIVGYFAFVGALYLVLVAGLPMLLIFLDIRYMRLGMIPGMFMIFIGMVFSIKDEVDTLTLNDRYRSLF
T1 sequence 2: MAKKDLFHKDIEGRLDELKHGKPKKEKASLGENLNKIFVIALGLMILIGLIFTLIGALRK
T1 sequence 3: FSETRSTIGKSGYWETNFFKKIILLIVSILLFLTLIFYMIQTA

B1: S. gordonii SecA2 with a C-terminal His6 tag (enzyme)
chain: MVKNFFHIRRLKKILAKIKSFEKEMSSLSDLDLQKKTDEFKKRLADGENLDQLLPEAYAVVREVDKRILGLFPYDVQVMGAIVLHEGNIAEMATGEGKTLTATMPLYLNALSGQGAMLVTPNSYLALRDAKEMGPVYRFLGLTIETAVRADESKPLETKEKRRIYQADIIYTTNSALGFDYLIENLAENKKNQFLREFNYVIIDEIDSILLDSAQTPLIISGAPRVQSNFYDMMNTLVQTLYEDEDYCYDDEKNEVWLTQKGIRAAESFLGLNHLFSKENQELVRHLNLALRAHMVYKKDQDYVVRQSENEAEVVLLDRATGRLMELTRLQGGQHQAIEAKEHVKLTQETRAMASITYQNLFKLFRKLSGMTGTGKVVESEFLETYSMSVVKIPTNCPVIRRDYPDQIYQTLPEKVFASLDEVKHYHAKGNPLLIFTGSVEMSEIYSSLLLREGIAHNLLNANNVAREAQMIAESGQLGAVTVATSMAGRGTDIKLGPGVADLGGLVVIGTERMENHRIDLQIRGRSGRQGDPGISKFFISLEDDLLKKWGPDWIKNFYRDYSPEDFKNNPILLKQRRFKKLVSKAQKASEGNAKLSRRLTLEYAQSMKIQRELTYAERNRLLEDTNEMEEEINRVIEYVIKQVAYEQSFENRADFYRFILHHFSNRAERIPQEFDIHSPKEVSHLLQAIAEQELLAKKSYLKSDKLYSQFQRLAILKAIDENWVEQVDYLQQLKSALSGFHTSNKKPIVEYYQEAYDGFEYMKERMKHQIVKNLLMSELALNPKGEVVMYFP

Target: T1, S. gordonii SecY2-Asp4-Asp5 complex (S. gordonii)

Row | Molecule | steady-state ATPase activity of 0.3 uM E. coli SecA on addition of 0.46 uM SecY2-Asp4-Asp5 in proteoliposomes, 25 C (SecA alone ~0.02 s^-1) | steady-state ATPase activity of 0.3 uM S. gordonii SecA2 on addition of 0.46 uM SecY2-Asp4-Asp5 in proteoliposomes, 25 C (SecA2 alone ~0.01 s^-1; 4-fold increase)
1 | E. coli SecA (from UniProt P10408 1-901) (enzyme) | 0.072 s⁻¹ | –
2 | B1 | – | 0.044 s⁻¹
